Blank lines part the entries; values can stand above or below the binder they belong to.
Key:
[1] = molecular target: T1, human folate receptor alpha (hFRα), recombinant protein (human, UniProt P15328 25-233); experiment: BLI, FRα on AR2G biosensors, 1:1 model
T1 construct: Bought recombinant proteins (His-tagged, or biotinylated via Avi-tag, e.g. AcroBiosystems FO1-H82E2, F01-H52H1); also called hFOLR1; huFOLR1
Outline: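 Binding kinetics measured by bio-layer interferometry. Kinetic constants and KD derived by fitting a 1:1 binding model.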

[2] = molecular target: T2, mouse folate receptor alpha expressed on transfected HEK293T cells (mouse, UniProt P35846 25-232); experiment: flow cytometry on HEK293T cells overexpressing mouse FOLR1, His tag detection, PE MFI, non-linear fit
T2 construct: also called cell-expressed mouse FRα
T2 sequence (P35846 25-232 limits assumed): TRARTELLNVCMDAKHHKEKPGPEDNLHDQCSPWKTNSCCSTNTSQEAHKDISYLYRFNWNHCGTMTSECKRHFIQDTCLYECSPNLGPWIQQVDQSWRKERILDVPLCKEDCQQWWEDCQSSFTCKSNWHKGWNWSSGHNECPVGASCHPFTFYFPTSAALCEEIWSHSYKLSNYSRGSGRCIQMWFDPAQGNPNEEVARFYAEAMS
Description: Data were normalized and technical replicates were plotted as mean±SD. Data were fitted by non-linear regression and the half-maximal effective concentration ^{∘}EC50) was calculated using GraphPad Prism 9 software. ^{∘}FIG. 1C and FIG. 1D) Binding affinity determination of anti-FOLR1 VHHs for native FOLR1. Mouse ^{∘}FIG. 1C) or human FOLR1 FIG. 1D) was overexpressed on HEK293T cells and binding of the anti-FOLR1 VHHs was assessed using flow cytometry. The mean fluorescence intensity ^{∘}MFI) of the phycoerythrin signal was plotted for each VHH concentration. Data were fitted by non-linear regression using GraphPad Prism 9 software. ^{∘}FIG. 1E) Determination of the competition of representative family members with folic acid ^{∘}FA) using ELISA. Mouse FOLR1 was coated on the plate and was pre-incubated with or without 100 μM FA before adding the VHHs. Data were fitted by non-linear regression using GraphPad Prism 9 software.

human FRα E140Q = molecular target: T3, human FRα E140Q (human, UniProt P15328 25-234); experiment: flow cytometry, transfected HEK293T cells (data not shown)
T3 construct: The entry is the mutant itself
T3 sequence (P15328 25-234 E140Q limits assumed): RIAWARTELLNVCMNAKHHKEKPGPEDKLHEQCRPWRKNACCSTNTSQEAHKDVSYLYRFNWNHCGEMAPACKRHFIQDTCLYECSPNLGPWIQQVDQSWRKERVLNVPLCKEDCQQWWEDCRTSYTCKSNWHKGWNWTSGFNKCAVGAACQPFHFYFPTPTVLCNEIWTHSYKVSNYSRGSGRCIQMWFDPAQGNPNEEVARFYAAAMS
Outline: (§1)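 HEK293T cells were transfected with single-residue mutants of human folate receptor alpha. Binding was measured by flow cytometry with each VHH at 200 nM. VHHs were detected with a mouse anti-His tag antibody followed by an anti-mouse phycoerythrin antibody. Untransfected cells served as negative control.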

human FRα R147H = molecular target: T4, human FRα R147H (human, UniProt P15328 25-234); experiment: as above
T4 construct: The entry is the mutant itself
T4 sequence (P15328 25-234 R147H limits assumed): as the sequence (P15328 25-234 E140Q limits assumed) above, with Q116E, R123H counted along it
Outline: as §1

human FRα Y150H = molecular target: T5, human FRα Y150H (human, UniProt P15328 25-234); experiment: as above
T5 construct: The entry is the mutant itself
T5 sequence (P15328 25-234 Y150H limits assumed): as the sequence (P15328 25-234 E140Q limits assumed) above, with Q116E, Y126H counted along it
Outline: as §1

human FOLR1/2 chimera 1 = molecular target: T6, human FOLR1/2 chimera 1 (human, UniProt P15328 25-234); experiment: flow cytometry, transfected HEK293T cells
T6 construct: on transfected HEK293T cells
T6 sequence (P15328 other isoform, or with tags, fused parts or gaps mutant limits assumed): as the sequence (P15328 25-234 E140Q limits assumed) above, with E8D, N15D, E21T, E31D, R34S, R37K, Q116E, P192S counted along it
Description: (§2) Chimera 1 SEQ ID No. 67) and 7 ^{∘}Ch7; SEQ ID No. 73) also contain an additional residue change at a separate location. […] HEK293T cells were transfected with hFOLR1, hFOLR2, one of the hFOLR1/2 chimeric constructs ^{∘}FIG. 2B) or single residue mutants ^{∘}FIG. 2C). Binding of VHHs 2HFO19, 2HFO42, 3MFR60, and a mouse anti-FOLR1 monoclonal antibody ^{∘}mAb) was detected using a mouse anti-His tag antibody for the VHHs followed by an anti-mouse-phycoerythrin antibody. All VHHs were tested at a concentration of 200 nM and untransfected cells were used as a negative control. The colors used for the VHHs represent the different CDR3 families; blue: family 1, green: family 3, grey: family 10.
(§3) To identify the exact region in which the VHHs bind to FRα, epitope mapping experiments were performed. Since the VHHs are able to bind human FRα, but not FRβ, we generated seven human FOLR1/2 chimeric constructs where regions of human FOLR1 were replaced by the corresponding human FOLR2 ^{∘}FRβ) regions ^{∘}FIG. 2A): chimera 1 SEQ ID No. 67), chimera 2 ^{∘}SEQ ID No. 68), chimera 3 ^{∘}SEQ ID No. 69), chimera 4 ^{∘}SEQ ID No. 70), chimera 5 ^{∘}SEQ ID No. 71), chimera 6 ^{∘}SEQ ID No. 72) and chimera 7 ^{∘}SEQ ID No. 73). Three additional chimera 1 constructs were made: chimera 1a ^{∘}replacing fragment 31-40; SEQ ID No. 74), chimera 1b ^{∘}replacing fragment 41-50; SEQ ID No. 75) and chimera 1c ^{∘}replacing fragment 51-64; SEQ ID NO. 76). The constructs were transiently transfected into HEK293T cells and dose-dependent binding of the VHHs to the wild-types FRα and FRβ ^{∘}WTs) or the chimeric constructs was assessed via flow cytometry via detection of the tag ^{∘}FIG. 2B). […] Different anti-FRα VHHs were able to bind to cell-expressed FRα-FRβ chimeras to a similar level as WT FRα, with the exception of chimera 4 ^{∘}SEQ ID No. 70) where the binding was completely abolished for all VHHs.

human FOLR1/2 chimera 7 = molecular target: T7, human FOLR1/2 chimera 7 (human, UniProt P15328 25-234); experiment: flow cytometry, transfected HEK293T cells
T7 construct: also called Ch7
T7 sequence (P15328 other isoform, or with tags, fused parts or gaps mutant limits assumed): as the sequence (P15328 25-234 E140Q limits assumed) above, with Q116E, K134R, T162A, V163A, N166E, E167G, I168L, T170S counted along it
Description: as §2, §3

human FOLR1/2 chimera 2 = human FOLR1/2 chimera 2 (human, UniProt P15328 25-234); experiment: flow cytometry, transfected HEK293T cells
Chain of human FOLR1/2 chimera 2 (P15328 other isoform, or with tags, fused parts or gaps mutant limits assumed): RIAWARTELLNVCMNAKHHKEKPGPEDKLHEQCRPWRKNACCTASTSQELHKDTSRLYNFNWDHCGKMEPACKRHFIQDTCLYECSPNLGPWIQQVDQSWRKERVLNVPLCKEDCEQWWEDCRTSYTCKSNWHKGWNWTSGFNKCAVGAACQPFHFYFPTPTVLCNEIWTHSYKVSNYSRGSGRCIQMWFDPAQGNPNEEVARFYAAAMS
Description: as §2, §3

[3] = molecular target: T8, human FOLR1/2 chimera 1a (replacing fragment 31-40) (human, UniProt P15328 25-234); experiment: flow cytometry, transfected HEK293T cells
T8 construct: Transiently expressed on HEK293T cells
T8 sequence (P15328 other isoform, or with tags, fused parts or gaps mutant limits assumed): as the sequence (P15328 25-234 E140Q limits assumed) above, with E8D, N15D, Q116E counted along it
Description: as §2, §3

human FOLR1/2 chimera 6 = human FOLR1/2 chimera 6 (human, UniProt P15328 25-234); experiment: flow cytometry, transfected HEK293T cells
Chain of human FOLR1/2 chimera 6 (P15328 other isoform, or with tags, fused parts or gaps mutant limits assumed): as the sequence (P15328 25-234 E140Q limits assumed) above, with Q116E, Q152R, P153T, H155E, F156S counted along it
Description: as §2, §3

[4] = molecular target: T9, human FOLR1/2 chimera 1b (replacing fragment 41-50) (human, UniProt P15328 25-234); experiment: flow cytometry, transfected HEK293T cells
T9 construct: Transiently expressed on HEK293T cells
T9 sequence (P15328 other isoform, or with tags, fused parts or gaps mutant limits assumed): as the sequence (P15328 25-234 E140Q limits assumed) above, with E21T, Q116E counted along it
Description: as §2, §3

human FOLR1/2 chimera 3 = human FOLR1/2 chimera 3 (human, UniProt P15328 25-234); experiment: flow cytometry, transfected HEK293T cells
Chain of human FOLR1/2 chimera 3 (P15328 other isoform, or with tags, fused parts or gaps mutant limits assumed): as the sequence (P15328 25-234 E140Q limits assumed) above, with D97N, V105F, N107D, Q116E counted along it
Description: as §2, §3

human FOLR1/2 chimera 5 = human FOLR1/2 chimera 5 (human, UniProt P15328 25-234); experiment: flow cytometry, transfected HEK293T cells
Chain of human FOLR1/2 chimera 5 (P15328 other isoform, or with tags, fused parts or gaps mutant limits assumed): as the sequence (P15328 25-234 E140Q limits assumed) above, with Q116E, N137D, F142V, A146P, V147A, A150L counted along it
Description: as §2, §3

T1 sequence (P15328 25-233 limits assumed): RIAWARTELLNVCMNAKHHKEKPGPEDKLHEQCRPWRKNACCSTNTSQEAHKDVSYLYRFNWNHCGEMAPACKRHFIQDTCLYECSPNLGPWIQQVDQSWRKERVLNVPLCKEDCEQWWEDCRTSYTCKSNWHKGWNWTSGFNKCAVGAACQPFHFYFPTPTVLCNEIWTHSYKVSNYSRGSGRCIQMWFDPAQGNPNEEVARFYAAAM

Kd [1]: 0.0637 µM | koff [1]: 0.0149 s⁻¹ | kon [1]: 233000 M⁻¹ s⁻¹ | EC50 [2]: 0.0014 µM | binding result (human FRα E140Q): binds | binding result (human FRα R147H): binds | binding result (human FRα Y150H): binds | binding result (human FOLR1/2 chimera 1): binds | binding result (human FOLR1/2 chimera 7): binds | binding result (human FOLR1/2 chimera 2): binds | binding result [3]: binds | binding result (human FOLR1/2 chimera 6): binds | binding result [4]: binds | binding result (human FOLR1/2 chimera 3): binds | binding result (human FOLR1/2 chimera 5): binds
B1: VHH 2HFO19 (family 1) (VHH)
VHH: QVQLQESGGGLVQPGGSLRVSCAASGFPFSTVYMSWVRQAPGKGLEWVSGINNDGGVIDYADSVKGRFTISRDNAKNTLYLQLNSLKPEDTALYFCARGRSFVATLSSSLRGQGTQVTVSS
notes: also called Nb19

Kd [1]: 0.169 µM | koff [1]: 0.159 s⁻¹ | kon [1]: 938000 M⁻¹ s⁻¹ | EC50 [2]: 0.0015 µM | binding result (human FRα E140Q): binds | binding result (human FRα R147H): binds | binding result (human FRα Y150H): binds | binding result (human FOLR1/2 chimera 1): binds | binding result (human FOLR1/2 chimera 7): binds | binding result (human FOLR1/2 chimera 2): binds | binding result [3]: binds | binding result (human FOLR1/2 chimera 6): binds | binding result [4]: binds | binding result (human FOLR1/2 chimera 3): binds | binding result (human FOLR1/2 chimera 5): binds
B2: VHH 3MFR60 (family 10) (VHH)
VHH: QVQLQESGGGLVQAGGSLRVSCAASGIIFSMNGMGWFRQAPGKQRELVASITSGGSTKYADSVKGRFTISRDNAKNTVYLQMNSLKPEDTAVYYCNIQFGSRWSTYWGQGTQVTVSS

Kd [1]: 0.274 µM | koff [1]: 0.0276 s⁻¹ | kon [1]: 101000 M⁻¹ s⁻¹ | EC50 [2]: 0.0012 µM | binding result (human FRα E140Q): binds | binding result (human FRα R147H): binds | binding result (human FRα Y150H): binds | binding result (human FOLR1/2 chimera 1): binds | binding result (human FOLR1/2 chimera 7): binds | binding result (human FOLR1/2 chimera 2): binds | binding result [3]: binds | binding result (human FOLR1/2 chimera 6): binds | binding result [4]: binds | binding result (human FOLR1/2 chimera 3): binds | binding result (human FOLR1/2 chimera 5): binds
B3: VHH 2HFO42 (family 3) (VHH)
VHH: QVQLQESGGGLVQAGGSLRLSCAASGSGFSGMIMGWYRQVPGKQRELVATVTSHGTTNYADSVKGRFTISRDNAKNTVLLQMNSLKPEDTAVYYCNAHFPGIYWGKGTQVTVSS
notes: also called 2HF042; Nb42

— patent publication US20250304677A1 (VIB VZW, published 2025)
